Patent US20250282881A1 (SHANGHAI EPIMAB BIOTHERAPEUTICS, published 2025)
One block for each binder: values may come before it.

Columns and labels:
[1] = molecular target: T1, recombinant human OX40/His fusion protein (Novoprotein, CB17) (human, UniProt P43489 29-216); experiment: BLI (Octet RED96), antibody on AHC sensor, OX40/His as analyte, test group 2 (the reference itself)
T1 construct: Bought protein
T1 sequence: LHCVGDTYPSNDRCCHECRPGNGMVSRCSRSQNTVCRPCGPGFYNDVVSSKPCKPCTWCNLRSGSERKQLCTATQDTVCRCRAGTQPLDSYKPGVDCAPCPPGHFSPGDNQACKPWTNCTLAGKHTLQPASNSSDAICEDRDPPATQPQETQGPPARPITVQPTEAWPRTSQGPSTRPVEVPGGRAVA
Experimental: (§1) All 17 antibodies in Table 4 were expressed by transient transfection of HEK293 cell, purified by Protein A chromatography, and assayed for and ranked by dissociation rate constant (koff). Briefly, antibodies binding affinities and kinetics were characterized by Octet® RED96 biolayer interferometry (Pall FortéBio LLC). Antibodies were captured by Anti-hIgG Fc Capture (AHC) Biosensors (Pall) at a concentration of 100 nM for 120 seconds. After that, sensors were dipped into running buffer (1× pH 7.2 PBS, 0.05% Tween 20, 0.1% BSA) for 60 seconds to check the baseline, then dipped into recombinant human OX40/His fusion protein (Novoprotein, CB17) at assigned concentration for 200 seconds to measure binding, followed by dipped into running buffer for 600 seconds for dissociation. The assay was conducted in four test groups (as listed in Table 5) all containing the EM1007-044c chimeric antibody as the basis for normalization. The association and dissociation curves were fitted to a 1:1 Langmuir binding model using ForteBio Data Analysis software (Pall) to obtain the off-rate constants as shown in Table 5 below. The off-rate of each antibody was compared to that of the EM1007-mAb044c chimeric antibody in the same test group obtained in parallel to produce the corresponding off-rate ratio, serving as a normalized index. […]

[2] = molecular target: T1, recombinant human OX40/His fusion …; experiment: BLI (Octet RED96), antibody on AHC sensor, OX40/His as analyte, test group 3
Experimental: (§2) All 17 antibodies in Table 4 were expressed by transient transfection of HEK293 cell, purified by Protein A chromatography, and assayed for and ranked by dissociation rate constant (koff). Briefly, antibodies binding affinities and kinetics were characterized by Octet® RED96 biolayer interferometry (Pall FortéBio LLC). Antibodies were captured by Anti-hIgG Fc Capture (AHC) Biosensors (Pall) at a concentration of 100 nM for 120 seconds. After that, sensors were dipped into running buffer (1× pH 7.2 PBS, 0.05% Tween 20, 0.1% BSA) for 60 seconds to check the baseline, then dipped into recombinant human OX40/His fusion protein (Novoprotein, CB17) at assigned concentration for 200 seconds to measure binding, followed by dipped into running buffer for 600 seconds for dissociation. The assay was conducted in four test groups (as listed in Table 5) all containing the EM1007-044c chimeric antibody as the basis for normalization. The association and dissociation curves were fitted to a 1:1 Langmuir binding model using ForteBio Data Analysis software (Pall) to obtain the off-rate constants as shown in Table 5 below. The off-rate of each antibody was compared to that of the EM1007-mAb044c chimeric antibody in the same test group obtained in parallel to produce the corresponding off-rate ratio, serving as a normalized index. […]

[3] = molecular target: T1, recombinant human OX40/His fusion …; experiment: BLI (Octet RED96), antibody on AHC sensor, OX40/His as analyte, test group 3 (the reference itself)
Experimental: as §1

[4] = molecular target: T2, human OX40 on cells (CHO-K1-hOX40, CHO-OX40, Jurkat-OX40 reporter cells) (human, UniProt P43489 29-277); experiment: cell-based or functional assay
T2 sequence: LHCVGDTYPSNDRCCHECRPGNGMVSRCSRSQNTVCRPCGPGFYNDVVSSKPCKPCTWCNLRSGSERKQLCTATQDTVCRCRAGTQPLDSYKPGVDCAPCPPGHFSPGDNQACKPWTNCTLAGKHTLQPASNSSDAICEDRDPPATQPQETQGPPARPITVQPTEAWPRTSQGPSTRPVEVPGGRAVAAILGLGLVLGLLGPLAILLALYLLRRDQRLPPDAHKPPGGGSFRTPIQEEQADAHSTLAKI

[5] = molecular target: T3, cyno OX40 on cells (CHO-K1-cOX40) (cyno); experiment: FACS on CHO-K1-cOX40 cells
T3 construct: whole, on cells; also called Cyno OX40 on the cell surface
Experimental: (§3) The purified chimeric antibody was designated EM1007-44c. Binding activity to human or Cyno OX40 on the cell surface was assessed by FACS. Briefly, 5×10⁵ cells were seeded into each well of a 96-well plate (Corning, #3799). Cells were centrifuged at 400 g for 5 minutes and supernatants were discarded. For each well, 100 μl of 3× serial dilution of antibody starting from 100 nM was then added and mixed with the cells. After 60 minutes of 4° C. incubation, plates were washed to remove excess antibody. […] After another round of centrifugation and washing, cells were resuspended in FACS buffer for reading on a CytoFLEX Flow Cytometer (Beckman Coulter). Median Fluorescence Intensity (MFI) readouts were plotted against antibody concentration and analyzed with GraphPad Prism 8.0. The ability of OX40 to activate downstream signaling was detected in a Jurkat-OX40-NF-κB luciferase assay. Briefly, high binding plates (Corning, #3361) were coated with 3× serial dilution of EM1007-44c starting from 100 nM at 4° C. overnight, washed, then seeded with 1×10⁵ cells per well of OX40-NF-κB reporter and incubate at 37° C. for 6 hours. At the end of incubation, ONE-Glo™ luminescence assay kit (Promega, Cat. #E6130) reagents were prepared and added according to the manufacturer's instructions. Plates were read for luminescence signals on Varioskan™ LUX microplate reader (ThermoFisher Scientific).

[6] = molecular target: T1, recombinant human OX40/His fusion …; experiment: BLI (Octet RED96), antibody on AHC sensor, OX40/His as analyte, test group 1 (the reference itself)
Experimental: as §1

[7] = molecular target: T1, recombinant human OX40/His fusion …; experiment: BLI (Octet RED96), antibody on AHC sensor, OX40/His as analyte, test group 1
Experimental: as §2

[8] = molecular target: T1, recombinant human OX40/His fusion …; experiment: BLI (Octet RED96), antibody on AHC sensor, OX40/His as analyte, test group 4 (the reference itself)
Experimental: as §1

[9] = molecular target: T1, recombinant human OX40/His fusion …; experiment: BLI (Octet RED96), antibody on AHC sensor, OX40/His as analyte, test group 4
Experimental: as §2

[10] = molecular target: T2, human OX40 on cells (CHO-K1-hOX40, …); experiment: FACS on CHO-K1-hOX40 cells
Experimental: as §3

[11] = molecular target: T1, recombinant human OX40/His fusion …; experiment: BLI (Octet RED96), antibody on AHC sensor, OX40/His as analyte, test group 2
Experimental: as §2

[12] = molecular target: T4, recombinant human PD-L1/His fusion protein (Novoprotein, Cat. No. C315) (human, UniProt Q9NZQ7 19-239); experiment: BLI (Octet RED96), antibody on AHC sensor, PD-L1/His as analyte, test group 2
T4 construct: also called recombinant human PD-L1-his protein
T4 sequence (Q9NZQ7 19-239 limits assumed): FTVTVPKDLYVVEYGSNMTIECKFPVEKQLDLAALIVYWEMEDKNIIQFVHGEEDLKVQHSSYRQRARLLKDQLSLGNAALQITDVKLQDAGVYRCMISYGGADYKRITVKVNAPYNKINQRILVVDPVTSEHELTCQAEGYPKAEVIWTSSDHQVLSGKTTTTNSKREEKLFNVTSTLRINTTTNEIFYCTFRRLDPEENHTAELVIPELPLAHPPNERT
Description: (§4) Based on titer and purity, 10 of the 50 humanized antibodies were selected and further assayed in two groups for dissociation rate constant (koff) as shown in Table 7. Chimeric antibody EM0005-86c having VH/VL sequences identical to EM0005-mAb86 (as provided in Table 6) was used as a positive control in each group and served as a basis for normalization. Briefly, antibodies were characterized for affinities and binding kinetics by Octet® RED96 biolayer interferometry (Pall FortéBio LLC). Anti-hIgG Fc Capture (AHC) Biosensors (Pall) with antibody captured at a concentration of 100 nM for 120 seconds were dipped into running buffer (1× pH 7.2 PBS, 0.05% Tween 20, 0.1% BSA) for 60 seconds to check the baseline, then dipped into a single concentration of recombinant human PD-L1/His fusion protein (Novoprotein, Cat. No. C315) to measure binding for 200 seconds, followed by dipped into running buffer to measure dissociation for 600 seconds. The association and dissociation curves were fitted to a 1:1 Langmuir binding model using FortéBio Data Analysis software (Pall). The off-rate ratios shown in Table 7 were calculated by off-rate of a humanized antibody to that of EM0005-86c in the same test group. The off-rate ratio serves as a normalized index, so that the humanized antibodies can be compared to one another across test groups. […]

[13] = molecular target: T4, recombinant human PD-L1/His fusion …; experiment: BLI (Octet RED96), antibody on AHC sensor, PD-L1/His as analyte, test group 1 (the reference itself)
Description: as §4

[14] = molecular target: T4, recombinant human PD-L1/His fusion …; experiment: BLI (Octet RED96), antibody on AHC sensor, PD-L1/His as analyte, test group 1
Description: Based on titer and purity, 10 of the 50 humanized antibodies were selected and further assayed in two groups for dissociation rate constant (koff) as shown in Table 7. Chimeric antibody EM0005-86c having VH/VL sequences identical to EM0005-mAb86 (as provided in Table 6) was used as a positive control in each group and served as a basis for normalization. Briefly, antibodies were characterized for affinities and binding kinetics by Octet® RED96 biolayer interferometry (Pall FortéBio LLC). Anti-hIgG Fc Capture (AHC) Biosensors (Pall) with antibody captured at a concentration of 100 nM for 120 seconds were dipped into running buffer (1× pH 7.2 PBS, 0.05% Tween 20, 0.1% BSA) for 60 seconds to check the baseline, then dipped into a single concentration of recombinant human PD-L1/His fusion protein (Novoprotein, Cat. No. C315) to measure binding for 200 seconds, followed by dipped into running buffer to measure dissociation for 600 seconds. The association and dissociation curves were fitted to a 1:1 Langmuir binding model using FortéBio Data Analysis software (Pall). The off-rate ratios shown in Table 7 were calculated by off-rate of a humanized antibody to that of EM0005-86c in the same test group. The off-rate ratio serves as a normalized index, so that the humanized antibodies can be compared to one another across test groups. The lower off-rate ratio indicates higher affinity of an antibody for human PD-L1. HuEM0005-86-21 was selected for further investigation based on the purity and off-rate data.

[15] = molecular target: T4, recombinant human PD-L1/His fusion …; experiment: BLI (Octet RED96), antibody on AHC sensor, PD-L1/His as analyte, test group 2 (the reference itself)
Description: as §4

- Normalized Index (off-rate ratio to EM1007-mAb044c) [1]: 100%
- koff [2]: 0.000305 s⁻¹
- Normalized Index (off-rate ratio to EM1007-mAb044c) [3]: 100%
- OX40-Jurkat-NF-κB-Reporter, EC50 [4]: 0.43 nM
- OX40-Jurkat-NF-κB-Reporter, Maximal fold change [4]: 1.52 fold
- EC50 [5]: 2.11 nM
- Normalized Index (off-rate ratio to EM1007-mAb044c) [6]: 100%
- koff [7]: 0.000336 s⁻¹
- Normalized Index (off-rate ratio to EM1007-mAb044c) [8]: 100%
- koff [9]: 0.000279 s⁻¹
- EC50 [10]: 2.6 nM
- koff [11]: 0.000318 s⁻¹
B1: EM1007-44c (antibody, human IgG1, V domains shown)
VH: QVQLQQSGPELVKPGASVTISCKASGHAFSSSWMNWVKQRPGKGLEWIGRIYPGDEITNYNGKFKDKATLTADKSSSTAYMQLSSLTFEDSAVYFCARDLLMPYWGQGTLVTVSA
VL: DIVMTQTAFSNPVTLGTSASISCRSSKSLLYSNGITYLYWYLQKPGQSPHLLIYQMSNLAPGVPDRFSSSGSGTDFTLRISRVEAEDVGIYYCAQNLELPFTFGSGTKLEIK
notes: also called EM1007-mAb044c; EM1007-044c

- koff [12]: 0.000146 s⁻¹
- Off-Rate Ratio to EM0005-86c [13]: 100%
- koff [14]: 0.000272 s⁻¹
- Off-Rate Ratio to EM0005-86c [15]: 100%
B2: EM0005-86c (antibody, V domains shown)
VH: QVQLQQSGAELVRPGSSVKMSCKTSGYTFTTYGINWVKQRPGQGLEWIGYIYIGNGYTEYNEKFKGKATLTSDPSSRTAYMQLSSLTSEDSAIYFCARDLMVIAPKTMDYWGQGTSVTVSS
VL: DIQMNQSHKFMSTSVGDRVSITCKASQDVGTAVAWYQQKPGQSPKLLIYWASTRHTGVPDRFTGGGSGTDFTLTISNVQSEDLADYFCQQYSSYPYTFGGGTKLEMK
notes: Chimeric anti-PD-L1; captured on anti-human IgG Fc sensors
